Laboratory results from US20200164059A1 (FRED HUTCHINSON CANCER RESEARCH CENTER, published 2020).

Experiments:
[1] = target: T1, EBV gH/gL heterodimer, recombinant ectodomain (Epstein Barr virus); assay: BLI kinetics, pH 5.0, ligand AMMO1 Mab, analyte gH/gL; KD M x10^-9
T1 construct: range 19-679;range 24-137

[2] = target: T1, EBV gH/gL heterodimer, recombinant …; assay: BLI kinetics, pH 5.0, ligand AMMO1 Mab, analyte gH/gL; kon (1/Ms) x10^5
[3] = target: T1, EBV gH/gL heterodimer, recombinant …; assay: BLI kinetics, pH 5.0, ligand AMMO1 Mab, analyte gH/gL; KA M^-1 x10^7
[4] = target: T1, EBV gH/gL heterodimer, recombinant …; assay: BLI kinetics, pH 7.4, ligand AMMO1 Mab, analyte gH/gL; KD M x10^-9
[5] = target: T1, EBV gH/gL heterodimer, recombinant …; assay: BLI kinetics, pH 7.4, ligand AMMO1 Mab, analyte gH/gL; kon (1/Ms) x10^5
[6] = target: T1, EBV gH/gL heterodimer, recombinant …; assay: BLI kinetics, pH 7.4, ligand AMMO1 Mab, analyte gH/gL; koff (1/s) x10^-3
gH/gL on EBV virions = gH/gL on EBV virions (Epstein Barr virus, UniProt P03231 19-706; P03212 23-137); assay: cell-based or functional assay
[7] = target: T1, EBV gH/gL heterodimer, recombinant …; assay: BLI kinetics, pH 5.0, ligand AMMO1 Mab, analyte gH/gL; koff (1/s) x10^-3
[8] = target: gH T62A/gL, recombinant ectodomain (Epstein Barr virus)
[9] = target: T1, EBV gH/gL heterodimer, recombinant …; assay: BLI kinetics, pH 7.4, ligand AMMO1 Mab, analyte gH/gL; KA M^-1 x10^7

B1: AMMO1 (antibody, V domains shown)
VH: QVQLVQSGADVKKPGASVKVSCKASGYTFIHFGISWVRQAPGQGLEWMGWIDTNNGNTNYAQSLQGRVTMTTDTSTGTAYMELRSLSTDDTAVYFCARALEMGHRSGFPFDYWGQGVLVTVSP
VL: SYELTQPPSVSVAPGQRATITCGGHNIGAKNVHWYQQKPGQAPVLVIQYDSDRPSGIPERFSGSNSGSTATLTISRVEAGDEADYYCQVWDSGRGHPLYVFGGGTKVTVL
notes: also called WT AMMO1; anti-gH/gL MAb AMMO1
- Kd [1]: 0.13 nM
- kon [2]: 573000 M⁻¹ s⁻¹
- Ka [3]: 7.84e+09 M⁻¹
- Kd [4]: 0.12 nM
- kon [5]: 334000 M⁻¹ s⁻¹
- koff [6]: 3.87e-05 s⁻¹
- neutralization of B95.8/F EBV infection of B (Raji) cells, IC50 (gH/gL on EBV virions): 0.16 mg/L
- koff [7]: 7.31e-05 s⁻¹
- Ka [8]: 5.85e+09 M⁻¹
- Kd [8]: 0.17 nM
- koff [8]: 0.000135 s⁻¹
- kon [8]: 789000 M⁻¹ s⁻¹
- Ka [9]: 8.63e+09 M⁻¹
